According to US20220008520A1, “METHODS AND MATERIALS FOR REDUCING AGE-RELATED STRIATED MUSCLE AND COGNITIVE DECLINE” (University of Pittsburgh - Of the Commonwealth System of …, priority 2018, published 2022):

Tests used:
MPCs [1] = experiment: qPCR-based analysis of mtDNA damage and mtDNA copy number in MPCs; format: cell-based, mice; details: aged MPCs, recombinant α-Klotho in culture for 48 hours, 0.05μg/mL
Procedure: mtDNA integrity was next examined in MPCs isolated from young or aged mice, using a qPCR-based assay. The method used is based on the principle that a wide variety of types of DNA damage have the propensity to block DNA polymerase progression (see, e.g., Furda et al., 2012 DNA Repair (Amst), 11:684-92). Therefore, this assay detects numerous kinds of base DNA damage or DNA repair intermediates such as abasic sites, as well as single and double DNA strand breaks.
MPCs were treated with 25 nmol of silencing RNA (siRNA) to α-Klotho (GE Dharmacon, Product no.SO2462181G) for 48 hours. As a control, young MPCs were treated with a non-targeting (scramble) siRNA. […]
(§1) Oxygen consumption rate (OCR) and extracellular acidification rate (ECAR) were measured in real time using a Seahorse XFe96 Extracellular Flux Analyzer (Billerica, Mass.) as described elsewhere (see, e.g., de Moura and Van Houten, 2014 Methods Mol Biol, 1105:589-602). The basal OCR was measured by averaging the OCR values before treating the cells with oligomycin. Total reserve capacity was calculated by the differences of OCR between treatment with FCCP and 2DG and basal values. Mitochondrial DNA damage was quantified as described elsewhere (see, e.g., Sanders et al., 2014 Toxicol Sci, 142:395-402; and Sanders et al., 2014 Neurobiol Dis, 62:381-6). […]

MPCs [2] = experiment: Seahorse XFe96 analysis of MPC bioenergetics (basal OCR, reserve capacity); format: cell-based, mice; details: aged MPCs, recombinant α-Klotho in culture for 48 hours, 0.05μg/mL
Procedure: In light of the loss of mitochondrial ultrastructural resulting from decreased α-Klotho expression, we next evaluated whether loss of α-Klotho drives MPC mitochondrial dysfunction. The bioenergetic profiles of young and aged MPCs were studied using a Seahorse XFe96 Flux analyzer, which measures oxygen consumption rate (OCR), a measure of oxidative phosphorylation. OCR was measured again after injection of oligomycin, FCCP, 2-deoxyglucose (2-DG), and rotenone. […] When young MPCs were treated with siRNA to α-Klotho, basal OCR was reduced to ˜25% values of scramble-treated counterparts (FIG. 4C, FIG. 14). MPCs isolated from uninjured Kl+/− mice display a similarly blunted bioenergetic profile (FIG. 4D). […] Reserve capacity represents the spare bioenergetic capacity, is calculated as the difference between the basal and maximal OCR, and indicates the ability of a cell to respond to stress. […]
as §1, with “values.” for “values. Mitochondrial DNA damage was quantified as described elsewhere (see, e.g., Sanders et al., 2014 Toxicol Sci, 142:395-402; and Sanders et al., 2014 Neurobiol Dis, 62:381-6).”

OGG1 and APE1 = experiment: LXRepair multiplex DNA base excision repair enzyme activities in MPCs; format: cell-based, mice; details: siRNA-treated MPCs from young animals, 48 hours of α-Klotho supplementation
Procedure: LXRepair multiplex technology (see, e.g., Garreau-Balandier et al., 2014 FEBS Lett, 588:1673-9; and Sauvaigo et al., 2004 Anal Biochem, 333:182-92) was used to evaluate the DNA base excision repair (BER) enzyme activities of OGG1 and APE1, which work on two common oxidative DNA lesions, 8-oxodG and abasic sites, respectively.
MPCs were treated with 25 nmol of silencing RNA (siRNA) to α-Klotho (GE Dharmacon, Product no.SO2462181G) for 48 hours. As a control, young MPCs were treated with a non-targeting (scramble) siRNA. Aged MPCs were treated with 0.05μg/mL exogenous α-Klotho (R & D systems, Product no. aa 34-981), added to the culture media for 48 hours.

aged mice = experiment: Cardiotoxin TA muscle injury in aged mice, α-Klotho supplementation in vivo; details: for functional recovery (wire hang test, in situ contractile testing) / myofiber area / number of regenerating fibers: daily i.p. 10 μg/kg
Procedure: Wild-type male C57BL/6 young, Kl+/− mice, or old mice received injuries to bilateral Tibialis Anterior (TA) muscles via an intramuscular injection of cardiotoxin (10 μL of 1 mg/mL). Fourteen days following the injury, TAs were harvested for histological analysis of α-Klotho, fibrosis (picrosirius red), degenerating myofibers (IgG) and myofiber regeneration (laminin). Second Harmonic Generation (SHG) imaging was performed on isolated TA muscles treated with a non-targeting control or lentiviral knockdown of α-Klotho, as well as pump-administered animals in order to visualize collagen and myofibers within the muscle 14 days post injury, as described elsewhere (see, e.g., Zhang et al., 2016 Stem Cells 34:732-742).
Strength endurance was tested using the hang-wire test as described elsewhere (see, e.g., Aartsma-Rus et al., J. Vis. Exp 85:51303 (2014)). The Hang Impulse (HI) score was calculated as bodyweight (grams)×time hung (seconds). Male mice were used for all testing using C57B1/6 mice. Wild type and Kl+/− were females for testing.
Mini osmotic pumps containing either saline or α-Klotho (324 pg/ml in saline vehicle) were inserted subcutaneously into aged mice. After 2 days, bilateral TA muscles were injured by intramuscular CTX injection (as above). Osmotic pumps remained implanted until euthanasia 14 days post injury. Isotonic saline or α-Klotho (10 μg/kg body weight) was administered to aged animals via daily intraperitoneal injections over days 1-3 post-injury or 3-5 days post-injury. The TAs were then harvested 14 days post injury and preserved for histology or SHG analysis. Blood serum was also collected to evaluate circulating α-Klotho levels via ELISA. The activity of α-Klotho was confirmed as described elsewhere (see, e.g., Shalhoub et al., 2011 Calcif Tissue Int, 89:140-50).

B1: α-Klotho: recombinant/exogenous α-Klotho protein (R & D systems, Product no. aa 34-981) (protein)
chain: AEPGQGAQTWARFARAPAPEAAGLLHDTFPDGFLWAVGSAAYQTEGGWRQHGKGASIWDTFTHHSGAAPSDSPIVVAPSGAPSPPLSSTGDVASDSYNNVYRDTEGLRELGVTHYRFSISWARVLPNGTAGTPNREGLRYYRRLLERLRELGVQPVVTLYHWDLPQRLQDTYGGWANRALADHFRDYAELCFRHFGGQVKYWITIDNPYVVAWHGYATGRLAPGVRGSSRLGYLVAHNLLLAHAKVWHLYNTSFRPTQGGRVSIALSSHWINPRRMTDYNIRECQKSLDFVLGWFAKPIFIDGDYPESMKNNLSSLLPDFTESEKRLIRGTADFFALSFGPTLSFQLLDPNMKFRQLESPNLRQLLSWIDLEYNHPPIFIVENGWFVSGTTKRDDAKYMYYLKKFIMETLKAIRLDGVDVIGYTAWSLMDGFEWHRGYSIRRGLFYVDFLSQDKELLPKSSALFYQKLIEDNGFPPLPENQPLEGTFPCDFAWGVVDNYVQVDTTLSQFTDPNVYLWDVHHSKRLIKVDGVVAKKRKPYCVDFSAIRPQITLLREMRVTHFRFSLDWALILPLGNQTQVNHTVLHFYRCMISELVHANITPVVALWQPAAPHQGLPHALAKHGAWENPHTALAFADYANLCFKELGHWVNLWITMNEPNTRNMTYRAGHHLLRAHALAWHLYDDKFRAAQKGKISIALQADWIEPACPFSQNDKEVAERVLEFDIGWLAEPIFGSGDYPRVMRDWLNQKNNFLLPYFTEDEKKLVRGSFDFLAVSHYTTILVDWEKEDPMKYNDYLEVQEMTDITWLNSPSQVAVVPWGLRKVLNWLRFKYGDLPMYVTANGIDDDPHAEQDSLRIYYIKNYVNEALKAYVLDDINLCGYFAYSLSDRSAPKSGFYRYAANQFEPKPSMKHYRKIIDSNGFLGSGTLGRFCPEEYTVCTECGFFQTRKSLLVFISFLVFTFIISLALIFHYSKKGQRSYK
- mtDNA damage (MPCs [1]): decreased mtDNA damage
- OCR (MPCs [2]): increased OCR
- reserve capacity (MPCs [2]): increased reserve capacity
- activity of BER enzymes (OGG1, APE1; 8-oxodG and abasic sites) (OGG1 and APE1): dramatically stimulated the activity of these BER enzymes
- activity of BER enzymes (OGG1, APE1; 8-oxodG and abasic sites) (OGG1 and APE1; listed as Klotho): stimulated repair
- functional recovery (wire hang test, in situ contractile testing) (aged mice; 1-3 dpi): only animals receiving α-Klotho over 3-5 dpi displayed an improved functional recovery
- myofiber area (aged mice; 1-3 dpi): significant increase in myofiber area
- number of regenerating fibers (aged mice; 1-3 dpi): significant increase in the number of regenerating fibers
- functional recovery (wire hang test, in situ contractile testing) (aged mice; 3-5 dpi): improved functional recovery
- myofiber area (aged mice; 3-5 dpi): significant increase in myofiber area
- number of regenerating fibers (aged mice; 3-5 dpi): significant increase in the number of regenerating fibers
- local α-Klotho within the injured muscle areas (aged mice; osmotic pump, 324 pg/ml, 14 dpi): significant increase in local α-Klotho
- increase in the number of MyoD+ cells at the site of injury (aged mice; osmotic pump, 14 dpi): approximately 3.5 fold
- number of regenerating fibers after injury (histology and SHG) (aged mice; osmotic pump, 14 dpi): increased number of regenerating fibers
- myofiber cross sectional area (aged mice; osmotic pump, vs saline): no significant increase
- total muscle area (aged mice; osmotic pump, vs saline): no significant increase
